Results: the supplement of paper PMC7125110
± gives the standard error. For part of these data: This sample holds only a part of the variants without activity.

B1: glmS ribozyme (parent)
chain: AUAAAAGCGCCAGAACUACAGAAAUGUAGUUGACGAGGAGGAGGUUUAUCGAAUUUUCGGCGGAUGCCUCCAAA

Tests used:
Settings in all cases: with glucosamine-6-phosphate
glucosamine-6-phosphate [1] = variants of: B1; test: kcat; higher = faster cleavage; RNA array
Procedure, shortened: (§1)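 Glucosamine-6-phosphate (40 μM to 10 mM) in HEPES/KCl/Mg(OAc)2 buffer was flowed over sequenced MiSeq chips, and tiles were imaged over ~14 h. Barcoded ribozyme variants there had been transcribed in situ by E. coli RNA polymerase and were tracked through a hybridised Cy3 probe at 37 °C. One- or two-exponential decay fits to per-tile medians, normalised to baseline and to non-cleaving reference variants, gave kobs. kcat and KM came from weighted Michaelis–Menten fits across concentrations.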

glucosamine-6-phosphate [2] = variants of: B1; test: KM; higher = weaker cofactor use; RNA array
Procedure, shortened: as §1

glucosamine-6-phosphate [3] = variants of: B1; test: self-cleavage kobs at 640 uM GlcN6P; higher = faster cleavage; RNA array
Procedure, shortened: as §1

glucosamine-6-phosphate [4] = variants of: B1; test: self-cleavage kobs at 2500 uM GlcN6P; higher = faster cleavage; RNA array
Procedure, shortened: as §1

glucosamine-6-phosphate [5] = variants of: B1; test: self-cleavage kobs at 10000 uM GlcN6P; higher = faster cleavage; RNA array
Procedure, shortened: as §1

glucosamine-6-phosphate [6] = variants of: B1; test: self-cleavage kobs at 160 uM GlcN6P; higher = faster cleavage; RNA array
Procedure, shortened: as §1

glucosamine-6-phosphate [7] = variants of: B1; test: self-cleavage kobs at 40 uM GlcN6P; higher = faster cleavage; RNA array
Procedure, shortened: as §1

Row | Variant | kcat (glucosamine-6-phosphate [1]) [s⁻¹] | KM (glucosamine-6-phosphate [2]) [µM] | self-cleavage kobs at 640 uM GlcN6P (glucosamine-6-phosphate [3]) [s⁻¹] | self-cleavage kobs at 2500 uM GlcN6P (glucosamine-6-phosphate [4]) [s⁻¹] | self-cleavage kobs at 10000 uM GlcN6P (glucosamine-6-phosphate [5]) [s⁻¹] | self-cleavage kobs at 160 uM GlcN6P (glucosamine-6-phosphate [6]) [s⁻¹] | self-cleavage kobs at 40 uM GlcN6P (glucosamine-6-phosphate [7]) [s⁻¹]
1 | G66C C68U | 0.00021 ± 1.1e-05 | 1890 ± 220 | 5.11e-05 ± 1e-05 | 0.000132 ± 2.7e-05 | 0.000173 ± 2.3e-05 | – | –
2 | U55G G60C | < 1e-05 | – | – | – | – | < 1e-05 | –
3 | G29U U47C | 0.000228 ± 1.3e-05 | 1050 ± 180 | 8.08e-05 ± 1.4e-05 | 0.00017 ± 2.9e-05 | 0.000206 ± 1.8e-05 | 4.21e-05 ± 1.6e-05 | –
4 | A14U C71U | 0.00742 ± 0.0032 | – | 0.00138 ± 0.00019 | 0.00252 ± 0.00058 | 0.00786 ± 0.00099 | 0.000492 ± 8.1e-05 | 0.000206 ± 3.1e-05
5 | A52U | 0.000465 ± 1.7e-05 | 2960 ± 200 | 8.16e-05 ± 1.8e-06 | 0.000223 ± 4.8e-06 | 0.000355 ± 5.5e-06 | 2.13e-05 ± 1.9e-06 | –
6 | A48G U57C | 1.23e-05 ± 2.5e-06 | – | – | – | – | – | –
7 | C50U A53C U54G | 1.06e-05 ± 9.8e-07 | – | – | – | < 1e-05 | – | –
8 | G41C U54C | 0.000229 ± 4e-05 | – | 0.000132 ± 2.8e-05 | 0.000162 ± 3.3e-05 | 0.000204 ± 2.4e-05 | – | –
9 | U31G G44U | 0.000237 ± 6.3e-05 | 8740 ± 3600 | – | 4.98e-05 ± 1.3e-05 | 0.000129 ± 3e-05 | – | –
10 | U45G C58G | 6.11e-05 ± 9.3e-06 | 4730 ± 1900 | – | – | 4.17e-05 ± 1.1e-05 | – | –
11 | C11A C67G | 5.42e-05 ± 1.1e-05 | – | 8.75e-05 ± 1.5e-05 | 3.8e-05 ± 1e-05 | 5.65e-05 ± 8.7e-06 | 3.16e-05 ± 1.1e-05 | –
12 | A53C C70G | 8.19e-05 ± 3.8e-06 | 438 ± 110 | 5.26e-05 ± 9.1e-06 | 6.51e-05 ± 9.9e-06 | 7.97e-05 ± 7.3e-06 | – | –
13 | U46A C70U | 0.004 ± 0.0017 | – | 0.00135 ± 0.00019 | 0.00206 ± 0.00026 | 0.00626 ± 0.00087 | 0.000346 ± 5.5e-05 | 0.000188 ± 3.1e-05
14 | G44A U56A | 0.00026 ± 6.2e-06 | 2650 ± 150 | 4.93e-05 ± 1.6e-05 | 0.00013 ± 2.6e-05 | 0.000205 ± 2.9e-05 | – | –
15 | A42C C67G | 8.04e-05 ± 1.5e-05 | – | – | 6.32e-05 ± 1.4e-05 | 6.4e-05 ± 4.6e-06 | – | –
16 | U47A G66U | 0.00545 ± 0.0009 | 1780 ± 480 | 0.00141 ± 0.00028 | 0.00244 ± 0.00069 | 0.00506 ± 0.00076 | – | 0.00013 ± 2.5e-05
17 | G13C U54G | 0.000222 ± 4.5e-06 | 6040 ± 230 | – | 6.51e-05 ± 1e-05 | 0.000138 ± 1.7e-05 | – | –
18 | C50A C67U | 1.84e-05 ± 4e-06 | – | – | – | – | – | –

Row | Variant | kcat (glucosamine-6-phosphate [1]) [s⁻¹] | KM (glucosamine-6-phosphate [2]) [µM] | self-cleavage kobs at 640 uM GlcN6P (glucosamine-6-phosphate [3]) [s⁻¹] | self-cleavage kobs at 2500 uM GlcN6P (glucosamine-6-phosphate [4]) [s⁻¹] | self-cleavage kobs at 10000 uM GlcN6P (glucosamine-6-phosphate [5]) [s⁻¹] | self-cleavage kobs at 160 uM GlcN6P (glucosamine-6-phosphate [6]) [s⁻¹] | self-cleavage kobs at 40 uM GlcN6P (glucosamine-6-phosphate [7]) [s⁻¹]
19 | U49G A53G | 0.00124 ± 0.00011 | 1440 ± 230 | 0.000361 ± 6.3e-05 | 0.000714 ± 0.00011 | 0.00116 ± 0.00015 | 0.000136 ± 2.5e-05 | 3.67e-05 ± 1.3e-05
20 | C58A A64C | < 1e-05 | – | – | – | – | – | < 1e-05
21 | G13C C16G U55A G60C C70G | 1.82e-05 ± 7.2e-06 | – | – | – | – | – | –
22 | C11U C58U | 3.64e-05 ± 4.6e-06 | – | – | 4.05e-05 ± 1.3e-05 | 3.32e-05 ± 7.1e-06 | – | –
23 | G29U U55C | 0.00826 ± 0.0027 | 3740 ± 1700 | 0.00112 ± 0.0002 | 0.00427 ± 0.0009 | 0.00588 ± 0.00079 | 0.000198 ± 7.2e-05 | 0.000123 ± 1.8e-05
24 | A48U U57G | < 1e-05 | – | – | – | < 1e-05 | < 1e-05 | < 1e-05
25 | C50G U56C | 1.76e-05 ± 2.6e-06 | – | – | – | – | – | –
26 | G7A C16G | < 1e-05 | – | – | < 1e-05 | < 1e-05 | < 1e-05 | < 1e-05
27 | A33G G35A G37A C71U | 1.55e-05 ± 4.5e-06 | – | – | – | – | – | –
28 | U30A U54C | 0.00409 ± 0.0013 | 1040 ± 490 | 0.00174 ± 0.00027 | 0.00215 ± 0.00045 | 0.00543 ± 0.001 | – | 0.000151 ± 2.1e-05
29 | C58G C71U | 7.95e-05 ± 3.4e-06 | 402 ± 99 | 4.63e-05 ± 1.1e-05 | 7.26e-05 ± 8.7e-06 | 7.36e-05 ± 9e-06 | – | –
30 | A12G G32U C70U | 0.00103 ± 0.00043 | – | 0.000285 ± 6.9e-05 | 0.000425 ± 9e-05 | 0.00121 ± 0.00019 | 0.000103 ± 1.9e-05 | –
31 | C11U G29C | 0.00018 ± 9.3e-06 | 1860 ± 290 | 4.1e-05 ± 1.1e-05 | 0.000109 ± 1.3e-05 | 0.00015 ± 1.2e-05 | – | –
32 | A42U U47A | 0.00012 ± 2.9e-06 | 1210 ± 91 | 4.11e-05 ± 1.2e-05 | 8.23e-05 ± 1.3e-05 | 0.000106 ± 1.7e-05 | – | –
33 | A39U U45G | 0.00909 ± 0.0007 | 2650 ± 300 | 0.00165 ± 0.00028 | 0.00481 ± 0.00079 | 0.00711 ± 0.00075 | 0.000471 ± 8.8e-05 | 0.000146 ± 2e-05
34 | C50G G51A G59U C70G | 0.000102 ± 2.5e-05 | – | 0.000132 ± 2.9e-05 | 7.99e-05 ± 2e-05 | – | 9.16e-05 ± 3.2e-05 | –
35 | C10U C67G U69G | 1.67e-05 ± 3.6e-06 | – | – | – | – | – | –
36 | C16A U69C | 0.00012 ± 3.2e-05 | – | 9.93e-05 ± 2.2e-05 | 7.87e-05 ± 2.2e-05 | 0.000168 ± 4e-05 | – | –
